Assay type in all cases: biochemical, Quillaja saponaria
Assay [1] is described as follows: Experiment 6-1: screening of rhamnosidases for derhamnosylation of saponins in treated bark extract (2%), QS-17 2310 to QS-18 2164 (PAR %). The note with it: TBE 2%, pH 7.5, 30 degC, 18 h; TIC peak area ratio percent, LCMS/MS; negative controls 3.061, 2.429.
Assay [2] in a line: Experiment 6-1: screening of rhamnosidases for derhamnosylation of saponins in treated bark extract (2%), QS-17 2296 to QS-18 2150 (PAR %). The conditions noted are these: TBE 2%, pH 7.5, 30 degC, 18 h; TIC peak area ratio percent of rhamnosylated starting saponin to derhamnosylated product, LCMS/MS; negative controls 4.876, 5.225.
The nature of assay [3]: Experiment 6-1: specificity of rhamnosidases towards other rhamnose residues (C3 saccharide rhamnose, C28 saccharide rhamnose). The conditions noted are these: TBE 2%, pH 7.5, 30 degC, 18 h; LCMS/MS; negative controls 0.18, 0.17.
Assay [4] is described as follows: Experiment 6-1: screening of rhamnosidases for derhamnosylation of saponins in treated bark extract (2%), desglucosyl-QS-17 2134 to QS-21 1988 (PAR %). The note with it: TBE 2%, pH 7.5, 30 degC, 18 h; TIC peak area ratio percent, LCMS/MS; negative controls 2.719, 2.158.

B1: 1016 (protein, listed as Olsenella profusa)
chain: MRATNLTVACLTNPLGIDVRCPELAWIDEDGLSQSAYQVECKDGAGATLWDTGKVASASMRIAWPGAALASRERVTWRVRLWDDGDACGPWSEFASIEEGLLSADDWCARWISGNYDVPTPRAGALGNFRQMVAAMRPASPDQVVTEPILEGRYPVDCFCRAFVVGKAPVRARLYITACGLYEARIDGEKVGDLCMAPGHTDYRKRVQYQTYDVTAALATGAHELTVQLADGWYRGSCGAWGLLNQYGTQTKLLAQLEVTYADGHVDCVATDTDWQWSGDGPILFADNKDGEMVDATRAPSYAGHARDARHDVAPTASNNVPITMHERFSPAPALAPNGRLLFDLGQNIAGWVELDFDAHESQHVLLRCGEMLDADGNLTLKNIQCSREGFATPLQQVEYVCREGHNHYRTTFCVFGFRYVEVETNVQLGEGSLTAIALYSDMRQTGSFECSNELLNRFFESTVWSTKGNSLDVPTDCPTRERHGWSGDAQIFFETLSYLFDCRSFERKWLHDLFDWQKRDGRLPQVAPAGGVDSYMRFLDGSVGWADAGILIPYRYWRHYGDASVLAELYDGMRRYAEFMIRRCGRRGPFSKRVGIHGEAKKYLVNMGQCYGEWAEPADVHKMDWKDTVAPHPEVATAYTDYVLGCMAQIARELGHEEDEARYRQYSEGCRLAYQELSRLPEFSLDTDRQARLVRPLAFGLLDPQQTAYARKRLVKACESYGWRLGTGFLSTPLILDVLAKYDLDAAYRLLENEEMPGWLFMPKMGATTVWESWEGTQAQGGIASLNHYSKGAVCAWLFRVMCGIAPDGERHVTVAPRPGGRFAYAKAGYESPCGFVGCGWQRVEDGWRFAVEVPANCAATVVLPDGSTREVGAGVHEFECVARAAREG
With B1, in assay [1], the “Peak57 (PAR %)” value turned out to be 3.326%. Also, the “QS-17 (PAR %)” value in assay [2] came out at 4.872%. Also, the “ratio PP/QS-21” value in assay [3] was 0.18. In assay [4], the “Peak75 (PAR %)” value worked out at 2.498%.

B2: 1035 (protein, listed as Caulobacter segnis)
chain: MVKAYRPSLVLVLALAFGPAASAEPIWITHPAAPSAPTVVRFERDLTLARKPGHFPVRVSADNRFILLVNGRRVGAGPATSDLGHWRYATLDLAPYLTRGSNHLEAVVWNYVKPEEPIPDGLSPAQKNAAAFRNQRNQTGPVAQISARLGFWFSAPGAPELDSGPTWRVQLDSARSAAPVMGQVAGFYAAGPSEIVDARVPLAAPVAATPALAPGEPSPWALSADPLPQMSYRAVDPGLVARTNLDEAKAFPRQPVTIPARKTVKILLARPAMVAAYPTLRVTGGKDASIKLTYAEALIDAKGRKGLRSEVGDRTIRGLSDRFTADGGARAFAPLWWRTWRYLEIEVQTADQPLRLQGLDVAETDYPFGQVGKFVSDDPELNRIWDIGWRTARIDAHETYMDTAYYEQLQYVGDTRLQALISYAVSGDPRLATQAMDAFGASRALGGVTEGAYPSRTSNPIPPFSLLWIGMLHDYWSRHPDPEPARRHLARAREVLAWFDGYLGPDGLMRKTPGWSFVDWAVKDGRLLSRDAFPSYDAQGRSCLLSLAYLGALRDMTDLEAALGEPSLAGRDRSRAEAIAAAVRDQCWAPDRGLFADTPDKASFSQHTNALAVLYDVAAPKDAAAILDRTVGQAGIDAPTGMISTSYYYAWYLVRAFDHAGQADRYLSLLDTWRGLLALDYTTWPEERGNTRSDTHAWSAHPTADLLELVAGIRPDAPGYGRLRVEPHLGALRRLDAAAATPQGPVEVKYRRKGQRLVVEVRKPAGLSGVFVWRGQSHALLGARTRLDLPAGD
On to B2, for which the “Peak57 (PAR %)” value in assay [1] came to 2.987%. Also, in assay [2], the “QS-17 (PAR %)” value is reported as 4.825%. For the same molecule, the “ratio PP/QS-21” value in assay [3] was found to be 0.17. Moreover, the “Peak75 (PAR %)” value in assay [4] is on record as 2.427%.

B3: 1036 (protein, listed as Bacteroides cellulosilyticus)
chain: MNRYILFFFLILSTLTTLRAQQSRLVEVGNGYSQTSVNTTVFRNNSLVTQGDEQYISYYDGDGYLVLGKRKLDSDQWTLKRTQYKGNVKDAHNIISMMLDGEGYLHLSFDHHGHKLNYCRSTAPYTLELGDKEPMTGVDEGNVTYPEFYPLNGGDLLFVYRSGSSGRGNLVMNHYSVKEKKWNRVQDVLIDGEDQRNAYWQLYVDEQGTIHLSWVWRETWHVETNHDLCYARSYDNGVTWYKANGKKYDLPIRYNNAEYACRIPQNSELINQTSMSADASGNPYIATYWRDPDSEVPQYRIVWHDGQMWHNRQVSNRHTPFSLKGGGTKMIPIARPRIVVDGGEIFYIFRDEERGSRVSLAHAAAVGVGKWTFTDLTNFPVDAWEPSHDTELWKQKRRLHLFVQHTKQGDGERRVEFAPQPVYVLEVVKPKGD
Turning to B3, the “Peak57 (PAR %)” value in assay [1] is on record as 2.852%. In addition, in assay [2], the “QS-17 (PAR %)” value came out at 4.834%. In addition, the “ratio PP/QS-21” value in assay [3] came to 0.16. Also, the “Peak75 (PAR %)” value in assay [4] turned out to be 2.444%.

B4: 1034 (protein, listed as Paenibacillus mucilaginosus)
chain: MSSTQTLRGRFDDPPAEYRAAPFWAWNDALREEEVLRQIGEMKEGGMGGFFIHSRDGLETEYMGTEWMKLVRAAVEEAEAQGMQAWLYDEDRWPSGFAGGLVQARGGDDYRAKGLTLEVVPAEKEGSGRLAERLADGAPVALFRAVIAERSLLSCTRLDLQVMFGSRMEAAAAAENTLLPPILEPQQEQHQDHETVYLLFRVEVSERSEWFNGEAPPDNLNPDTVRTFIELTYEAYEREVGGSFGSAVRGVFTDEPSIHDRHCRFTPGRAWLPWSGSFPAFYRERRGSDVLDTAPYLFFDGSLSPQARHDYWRTVTERFSEAYSGQIGEWCGSRGLAFTGHYLWENNLGTATRVCGAVMPNYRYQHVPGIDMLGEQTNETITVKQCTSVAHQYGRKVVLSETYGCTGWGFTFEGQRWVGDFQYVLGVNLRSQHLALYSIKGCRKRDYPPVFHYNTSWWKFSRVIEDYYARLSAVLTEGRPIRDVLVLHPSTTAWSMVGTGPYGFPARGKDRDVSAANRYGHEFNAFLRGLLGAHYDFDLGDEIILSEIGSVRQTEQTARLAVGMAEYRTVVLPEIRTMLRSTFLLLTGFLEAGGRVVAVGPPAELLEGRPAPELSRLYGHPGLTVVPDGAAAAAALESFLPRRVSIRHQAPQHTEPAEADKMLYMLQKADNRRVLFIVNNDREEEQQVTITLEGEGLLEEWNALTGEVTDVLVRRSQEGLLEFDASFGPADSKLYVLHTDRAPETGLNASPASEAPLLLVDPGTIRMELLQEPAGFTRTAPNALTLDRCSYRLRDGDWSGEMDVWQAQRAVREALGMRQVYGNGLEQRYRWVHEPHPGDGTPAAFRFDFEVTDVPEGEIHLVVESAGEYELGLNGNPVPGVPDGWFLDRSFDRVPLSGLRAGRNELVLSCRYHQRMEVEDLYLTGDFGVDEGRRITREPEKLQLGDWCLQGYPHYAGSMVYRFTVDGGLTPGGPAWLELGSFQAVTAEVRINRETAGHVPWRAANRLDISGRLRQGENLIEVEVMGSPRNLLGPFHHTSGDPSITSWSSFRKEGGDYSPAYRLRPYGLFGGIRLYRVQEQGGKGG
For B4, the “Peak57 (PAR %)” value in assay [1] came out at 3.034%. Moreover, in assay [2], the “QS-17 (PAR %)” value came to 4.827%. In assay [3], the “ratio PP/QS-21” value is listed as 0.17. In addition, the “Peak75 (PAR %)” value in assay [4] is 2.389%.

B5: 1008 (protein, listed as Pedobacter heparinus)
chain: MNLKTTGIVLVLSTIVCFPCIAQKNLEQSFKVTPDTIQTSVYWYWMSDNISKDGVVKDLYAMKSAGINRAFIGNIGYETTPYGKVKLFSAEWWDIMHTALKTATNLNIEIGVFNSPGWSQSGGPWVKPAQAMRYLASTKANFVGPKQLNVQLEKPKGYFQDVRVIAYKTPKAYGNSIAVHKPKLSSSISVQNINNLIDGSENTTVDIPATESITIDLETSSSFTARSLVVYPAHKGLNVNVELQVKKNKEYVSVKTFSVNRTNSNLHVGFKPYGPVAVSIPPTIGHSFRLVFGKSGGFGLAEVVLSQTPVVESYTEKTLAKMFQSPLPYWNEYQWPDQPLIDDLSLVIDPKTVIDITTFMNAEGQLKWDLPAGNWTIMRTGMLPTGVKNGPASPEGTGLEIDKMSKEHVANHFDAFMGELLRRIPAADRKTWKVVVQDSYETGGQNWTDDMIEKFKASFHYDPLPYLPVIQGEVVGDQNQSDRFLWDLRRFIADRVAYDYVGGLRDISHKHGLTTWLENYGHWGFPGEFLQYGGQSDEIGGEFWSEGELGNIENRAASSAAHIYGKTKVSAESFTAGDKPYQRYPYIMKQRGDRFFTEGINNTLLHLFIQQPSEDKVPGINANFGNEFNRHNTWFSYIDLFTGYLKRTNFMLQQGKYVADVAYFIGEDAPKMTGITDPALPAGYSFDYINAEVIQTRMKVKDGRMVLPDGMSYKLLVLPKLKTMRPELLAKIKELVAQGANILGPAPERSPSLANFPEADAKVKRMVTELWGNVNGTTIKTRKLGKGTIMSGMDMKLALNALNILPDFKTNTTDPVLFIHRSGPQAELYFISNQSEKQITFSPTFRSVDMQPELWDPVTGKTRVLSELSANGSSTTIPLTLEPLQSIFVVFRNPLVASPIRAINFPEAKTIEEINGPWKVTFNSQMRGPEKPVMFDTLIDWTKRPEESIKYYAGTAVYSNSFRATKPVKGERIYLYFSEVSVMAKVKVNGTDVGGMWTAPWRVDITDAIISGVNTLDISVVNNWVNRLVGDSKLPEAKRKTWTNNNPYTPDSKLVPSGLTGKVVVKTIKY
As for B5, in assay [1], the “Peak57 (PAR %)” value amounted to 2.658%. The “QS-17 (PAR %)” value in assay [2] is recorded as 4.834%. In addition, the “ratio PP/QS-21” value in assay [3] came out at 0.17. The “Peak75 (PAR %)” value in assay [4] worked out at 2.538%.

B6: 1042 (protein, listed as Streptomyces scabiei)
chain: MNPTAPAEQTPTDITVSVTGLRTADDSGLVATAHAMPRLSWSLTGTRPGILQHAYEIQVSGAPSFDDTTSSGQVESGTVTDHPWPAQPLSSRETRHWRVRVRTDRGWTRWSDPARVEGALLDAVDWAARPVHVPSDRGRPSPGPVPLLRREFHLPAEPVSARLYVTSLGVHRTTLNGRPVSADLLEPGWTSYPDRLLYATYDVTGLLRPGPNALAAAVGDGWFRGHLTWHKNRDVYGDTTGLLAQLEVDLTDGTRVTVITDGRWKGGYGDLLSADLYDGCERDLRAEPHGWQLPGFADDGWEPVAVLPLPEGLGQRAHPPVRVVRTVRPRLRTLADGTIAVDAGENVTGRLRIRADGRPGGTVTVRHAEVLDGDGRLLTSILRGARATDRYTLAEGPADLTPEFTFHGFRYAEIDASPDVSVEAVEVEVVAGDLRRIGEFHCSDERVNTLYANVVRSQRGNFLAVPTDCPQRDERLGWTGDIMAFAPTACATFDSASFLDSRLTDLRIQQRPDGAVPMVVPDVPLGELPPAELPFAGAAAGWGDAATVVPAALFEAYGQPHLLERHYTAMRAWVEFTVAHLDEDGTWSGNAQLGDWLDPAAPPENPAAATTDSGYVATAFVAHSARLLADAARELGFPEDADRYTALHRRTAEAAWRKWGDHARTTQTGCALALEFGIAPAGERAEVGKALASLVRANGGRIATGFLGTPFVLPALGDTGHVAEAYELLLNPECPGWLHQVSRGATTMWERWDAIGPDGTVDVENAGTMLSFNHYAYGAVASWLYRSVAGLRPASPGYRTLDIAPRPGATLTSAEAAVDTPYGTASVAWSIGDGSLTVRAVLPPGTTGRFSAPEGWTCTEPVDALASGSHVLSLRPLTRP
For the molecule B6, the “Peak57 (PAR %)” value in assay [1] came to 3.383%. Also, the “QS-17 (PAR %)” value in assay [2] is 4.871%. The “ratio PP/QS-21” value in assay [3] was determined as 0.18. Also, in assay [4], the “Peak75 (PAR %)” value was 2.599%.

For the origin of these results see patent US20240026407A1, “MODIFICATION OF SAPONINS” (GLAXOSMITHKLINE BIOLOGICALS SA, priority 2020, published 2024).
